Kd data for 27 molecules are collected here from paper PMC10786891, “Massively parallel profiling of RNA-targeting CRISPR-Cas13d”.

The chains are these.
T1: EsCas13d, nuclease-dead (Eubacterium siraeum, UniProt B0MS50, R295A;H300A;R849A;H854A)
T1 sequence: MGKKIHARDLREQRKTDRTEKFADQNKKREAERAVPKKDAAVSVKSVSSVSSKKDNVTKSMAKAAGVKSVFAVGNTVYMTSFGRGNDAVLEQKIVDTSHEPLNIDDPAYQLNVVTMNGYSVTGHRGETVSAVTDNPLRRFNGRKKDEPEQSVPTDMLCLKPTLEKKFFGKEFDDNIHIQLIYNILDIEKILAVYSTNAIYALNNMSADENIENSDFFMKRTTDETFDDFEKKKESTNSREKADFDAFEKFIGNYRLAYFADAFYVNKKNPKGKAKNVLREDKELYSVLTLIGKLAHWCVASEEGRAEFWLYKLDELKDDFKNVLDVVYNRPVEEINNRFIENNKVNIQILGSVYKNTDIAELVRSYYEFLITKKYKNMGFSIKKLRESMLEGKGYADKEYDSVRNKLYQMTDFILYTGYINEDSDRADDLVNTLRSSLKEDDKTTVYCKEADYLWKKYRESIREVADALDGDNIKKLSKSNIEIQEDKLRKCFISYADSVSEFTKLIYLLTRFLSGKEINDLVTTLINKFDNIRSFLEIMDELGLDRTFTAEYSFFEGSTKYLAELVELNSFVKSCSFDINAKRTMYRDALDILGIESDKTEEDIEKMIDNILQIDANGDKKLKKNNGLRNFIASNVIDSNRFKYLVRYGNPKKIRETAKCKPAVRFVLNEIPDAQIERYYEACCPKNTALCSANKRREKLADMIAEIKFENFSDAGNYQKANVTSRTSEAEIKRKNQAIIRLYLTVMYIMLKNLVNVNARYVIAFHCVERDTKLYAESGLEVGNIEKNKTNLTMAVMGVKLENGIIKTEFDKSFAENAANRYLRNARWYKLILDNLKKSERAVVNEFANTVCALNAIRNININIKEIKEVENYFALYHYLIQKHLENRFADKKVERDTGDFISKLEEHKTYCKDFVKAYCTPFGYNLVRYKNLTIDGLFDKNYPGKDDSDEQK

B1: target 1 insC 3' of 19,insU 3' of 1 (mixed)
RNA 1: CACCCGUGCAAAAAUGCAGGGGUCUAAAACUGAGCGGAUAACCUCUCUAUGG
RNA 2: GGGAAUGGAUCCACAUCUACGAAUUCGUACCAUCAGAGAGGUUAUCCGCUCAUCCGAGAUCGGAAGAGCACACGU
B2: target 1 insC 3' of 15,insU 3' of 14 (mixed)
RNA 1: CACCCGUGCAAAAAUGCAGGGGUCUAAAACUGAGCGGAUAACCUCUCUAUGG
RNA 2: GGGAAUGGAUCCACAUCUACGAAUUCGUACCAUAGAGCAUGGUUAUCCGCUCACCGAGAUCGGAAGAGCACACGU
B3: target 1 insA 3' of 13,insA 3' of 6 (mixed)
RNA 1: CACCCGUGCAAAAAUGCAGGGGUCUAAAACUGAGCGGAUAACCUCUCUAUGG
RNA 2: GGGAAUGGAUCCACAUCUACGAAUUCGUACCAUAGAGAGAGUUAUCCAGCUCACCGAGAUCGGAAGAGCACACGU
B4: target 1 U3C,C21U (mixed)
RNA 1: CACCCGUGCAAAAAUGCAGGGGUCUAAAACUGAGCGGAUAACCUCUCUAUGG
RNA 2: GGGAAUGGAUCCACAUCUACGAAUUCGUACUAUAGAGAGGUUAUCCGCCCACCGAGAUCGGAAGAGCACACGU
B5: target 1 insA 3' of 21,insA 3' of 10 (mixed)
RNA 1: CACCCGUGCAAAAAUGCAGGGGUCUAAAACUGAGCGGAUAACCUCUCUAUGG
RNA 2: GGGAAUGGAUCCACAUCUACGAAUUCGUACCAAUAGAGAGGUUAAUCCGCUCACCGAGAUCGGAAGAGCACACGU
B6: target 1 complement block 4-6 (mixed)
RNA 1: CACCCGUGCAAAAAUGCAGGGGUCUAAAACUGAGCGGAUAACCUCUCUAUGG
RNA 2: GGGAAUGGAUCCACAUCUACGAAUUCGUACCAUAGAGAGGUUAUCGCGUCACCGAGAUCGGAAGAGCACACGU
B7: target 1 A9U,A20U (mixed)
RNA 1: CACCCGUGCAAAAAUGCAGGGGUCUAAAACUGAGCGGAUAACCUCUCUAUGG
RNA 2: GGGAAUGGAUCCACAUCUACGAAUUCGUACCUUAGAGAGGUUUUCCGCUCACCGAGAUCGGAAGAGCACACGU
B8: target 1 insC 3' of 19,insG 3' of 6 (mixed)
RNA 1: CACCCGUGCAAAAAUGCAGGGGUCUAAAACUGAGCGGAUAACCUCUCUAUGG
RNA 2: GGGAAUGGAUCCACAUCUACGAAUUCGUACCAUCAGAGAGGUUAUCCGGCUCACCGAGAUCGGAAGAGCACACGU
B9: target 1 A1G,C6U (mixed)
RNA 1: CACCCGUGCAAAAAUGCAGGGGUCUAAAACUGAGCGGAUAACCUCUCUAUGG
RNA 2: GGGAAUGGAUCCACAUCUACGAAUUCGUACCAUAGAGAGGUUAUCUGCUCGCCGAGAUCGGAAGAGCACACGU
B10: target 1 insG 3' of 7 (mixed)
RNA 1: CACCCGUGCAAAAAUGCAGGGGUCUAAAACUGAGCGGAUAACCUCUCUAUGG
RNA 2: GGGAAUGGAUCCACAUCUACGAAUUCGUACCAUAGAGAGGUUAUCGCGCUCACCGAGAUCGGAAGAGCACACGU
B11: target 1 U3C,G12A (mixed)
RNA 1: CACCCGUGCAAAAAUGCAGGGGUCUAAAACUGAGCGGAUAACCUCUCUAUGG
RNA 2: GGGAAUGGAUCCACAUCUACGAAUUCGUACCAUAGAGAGAUUAUCCGCCCACCGAGAUCGGAAGAGCACACGU
B12: target 1 insA 3' of 12,insG 3' of 9 (mixed)
RNA 1: CACCCGUGCAAAAAUGCAGGGGUCUAAAACUGAGCGGAUAACCUCUCUAUGG
RNA 2: GGGAAUGGAUCCACAUCUACGAAUUCGUACCAUAGAGAGGAUUAGUCCGCUCACCGAGAUCGGAAGAGCACACGU
B13: target 1 U10G,A16G (mixed)
RNA 1: CACCCGUGCAAAAAUGCAGGGGUCUAAAACUGAGCGGAUAACCUCUCUAUGG
RNA 2: GGGAAUGGAUCCACAUCUACGAAUUCGUACCAUAGGGAGGUGAUCCGCUCACCGAGAUCGGAAGAGCACACGU
B14: target 1 insU 3' of 17,insU 3' of 9 (mixed)
RNA 1: CACCCGUGCAAAAAUGCAGGGGUCUAAAACUGAGCGGAUAACCUCUCUAUGG
RNA 2: GGGAAUGGAUCCACAUCUACGAAUUCGUACCAUAGUAGAGGUUAUUCCGCUCACCGAGAUCGGAAGAGCACACGU
B15: target 1 insU 3' of 17,insC 3' of 17 (mixed)
RNA 1: CACCCGUGCAAAAAUGCAGGGGUCUAAAACUGAGCGGAUAACCUCUCUAUGG
RNA 2: GGGAAUGGAUCCACAUCUACGAAUUCGUACCAUAGUCAGAGGUUAUCCGCUCACCGAGAUCGGAAGAGCACACGU
B16: target 1 insC 3' of 19,insG 3' of 2 (mixed)
RNA 1: CACCCGUGCAAAAAUGCAGGGGUCUAAAACUGAGCGGAUAACCUCUCUAUGG
RNA 2: GGGAAUGGAUCCACAUCUACGAAUUCGUACCAUCAGAGAGGUUAUCCGCUCGACCGAGAUCGGAAGAGCACACGU
B17: target 1 A1C,C6U (mixed)
RNA 1: CACCCGUGCAAAAAUGCAGGGGUCUAAAACUGAGCGGAUAACCUCUCUAUGG
RNA 2: GGGAAUGGAUCCACAUCUACGAAUUCGUACCAUAGAGAGGUUAUCUGCUCCCCGAGAUCGGAAGAGCACACGU
B18: target 1 insC 3' of 22,insU 3' of 7 (mixed)
RNA 1: CACCCGUGCAAAAAUGCAGGGGUCUAAAACUGAGCGGAUAACCUCUCUAUGG
RNA 2: GGGAAUGGAUCCACAUCUACGAAUUCGUACCCAUAGAGAGGUUAUCUCGCUCACCGAGAUCGGAAGAGCACACGU
B19: target 1 G15A,A18U (mixed)
RNA 1: CACCCGUGCAAAAAUGCAGGGGUCUAAAACUGAGCGGAUAACCUCUCUAUGG
RNA 2: GGGAAUGGAUCCACAUCUACGAAUUCGUACCAUUGAAAGGUUAUCCGCUCACCGAGAUCGGAAGAGCACACGU
B20: target 1 insA 3' of 19,insC 3' of 5 (mixed)
RNA 1: CACCCGUGCAAAAAUGCAGGGGUCUAAAACUGAGCGGAUAACCUCUCUAUGG
RNA 2: GGGAAUGGAUCCACAUCUACGAAUUCGUACCAUAAGAGAGGUUAUCCGCCUCACCGAGAUCGGAAGAGCACACGU
B21: target 1 A18C,C21A (mixed)
RNA 1: CACCCGUGCAAAAAUGCAGGGGUCUAAAACUGAGCGGAUAACCUCUCUAUGG
RNA 2: GGGAAUGGAUCCACAUCUACGAAUUCGUACAAUCGAGAGGUUAUCCGCUCACCGAGAUCGGAAGAGCACACGU
B22: target 1 insU 3' of 20,insG 3' of 3 (mixed)
RNA 1: CACCCGUGCAAAAAUGCAGGGGUCUAAAACUGAGCGGAUAACCUCUCUAUGG
RNA 2: GGGAAUGGAUCCACAUCUACGAAUUCGUACCAUUAGAGAGGUUAUCCGCUGCACCGAGAUCGGAAGAGCACACGU
B23: target 1 insA 3' of 8,insA 3' of 4 (mixed)
RNA 1: CACCCGUGCAAAAAUGCAGGGGUCUAAAACUGAGCGGAUAACCUCUCUAUGG
RNA 2: GGGAAUGGAUCCACAUCUACGAAUUCGUACCAUAGAGAGGUUAUACCGCAUCACCGAGAUCGGAAGAGCACACGU
B24: target 1 C2A,G15U (mixed)
RNA 1: CACCCGUGCAAAAAUGCAGGGGUCUAAAACUGAGCGGAUAACCUCUCUAUGG
RNA 2: GGGAAUGGAUCCACAUCUACGAAUUCGUACCAUAGAUAGGUUAUCCGCUAACCGAGAUCGGAAGAGCACACGU
B25: target 1 G12C,C21A (mixed)
RNA 1: CACCCGUGCAAAAAUGCAGGGGUCUAAAACUGAGCGGAUAACCUCUCUAUGG
RNA 2: GGGAAUGGAUCCACAUCUACGAAUUCGUACAAUAGAGAGCUUAUCCGCUCACCGAGAUCGGAAGAGCACACGU
B26: target 1 insU 3' of 15,insC 3' of 3 (mixed)
RNA 1: CACCCGUGCAAAAAUGCAGGGGUCUAAAACUGAGCGGAUAACCUCUCUAUGG
RNA 2: GGGAAUGGAUCCACAUCUACGAAUUCGUACCAUAGAGUAGGUUAUCCGCUCCACCGAGAUCGGAAGAGCACACGU
B27: target 1 C7A,U19C (mixed)
RNA 1: CACCCGUGCAAAAAUGCAGGGGUCUAAAACUGAGCGGAUAACCUCUCUAUGG
RNA 2: GGGAAUGGAUCCACAUCUACGAAUUCGUACCACAGAGAGGUUAUACGCUCACCGAGAUCGGAAGAGCACACGU

The target in this data set is T1, EsCas13d, nuclease-dead. The data set is described as follows: crRNA (strand 1, pre-loaded); Mg2+; 40 mM Tris-HCl pH 7.5, 150 mM NaCl, 6 mM MgCl2, 1 mM DTT, 0.1% Tween-20, 0.2 mg/ml BSA; 25 C; 10 min per concentration, then washed. To be noted: tags: His6-TwinStrep-SUMO cleaved; N-terminal SNAP kept (SNAP-Surface 488); label: 3' end held by stalled T7 RNA polymerase.
For the molecule B1, the affinity, expressed as Kd, was 39 ± 8 nM.

Regarding B2, the Kd was determined as 28.5 ± 2.3 nM.

The molecule B3 gave a Kd of 4.18 ± 0.24 nM.

Consider B4, for which the Kd amounted to 27 ± 7 nM.

B5 came in with a Kd of 28.2 ± 2.4 nM.

B6 had a Kd of 4.95 ± 0.15 nM.

For B7, the affinity, expressed as Kd, was 43 ± 4 nM.

Turning to B8, binding was put at a Kd of 32 ± 4 nM.

The molecule B9 gave a Kd of 8.9 ± 0.7 nM.

B10 showed a Kd of 5.5 ± 0.16 nM.

Molecule B11 registered a Kd of 11.1 ± 1.1 nM.

B12 yielded a Kd of 46.9 ± 3.5 nM.

On to B13, for which binding was put at a Kd of 42.2 ± 3.5 nM.

B14 had a Kd of 40 ± 8 nM.

For the molecule B15, the Kd turned out to be 36 ± 5 nM.

As for B16, binding was characterised by a dissociation constant (Kd) of 33 ± 5 nM.

B17: the equilibrium dissociation constant (Kd) worked out at 9.2 ± 0.9 nM.

On to B18, for which the Kd was 47 ± 8 nM.

B19 returned a Kd of 58 ± 11 nM.

Molecule B20 displayed a Kd of 48 ± 8 nM.

As for B21, the affinity, expressed as Kd, was 88 ± 23 nM.

Molecule B22 had a Kd of 9.4 ± 0.6 nM.

On to B23, for which the Kd was found to be 8.4 ± 0.5 nM.

Molecule B24 displayed a Kd of 29 ± 5 nM.

The molecule B25 returned a dissociation constant (Kd) of 58 ± 11 nM.

As for B26, the Kd came out at 11.6 ± 1.1 nM.

The molecule B27 displayed a Kd of 33.2 ± 3.5 nM.

Broadly, the Kd is the free concentration of one partner at which half of the binding sites on the other are occupied at equilibrium, for simple one-to-one binding.
